{"source": "patent US20250122306A1", "about": "(SUTRO BIOPHARMA, published 2025)", "binders": {"B1": {"name": "mAb 37: aTF_2842-B01_Hc3_Y180/F404TAG pAzMeF; aTF_2842-B01_Lc2 (antibody, IgG1, V domains shown)", "VH": "EVQLVESGGGLVQPGGSLRLSCAASGFSISSYDMSWVRQAPGKGLEWIGIIGSNGRTYYPDSVKGRFTISRDNSKNTVTLQMNSLRAEDTAVYYCARGLYDGTGNIWGQGTLVTVSS", "VL": "ELVMTQSPPTLSLSPGERVTLSCRASQSVYGNNWLSWYQQKPGQAPRLLIYGASKLATSIPARFSGSGSGTQFTLTISSLQPEDFAVYYCQGTYYSGDWYFAFGQGTKVEIKR", "modifications": "pAzMeF at Y180 and F404 (EU), * in the sequence", "notes": "unconjugated full-length IgG1/kappa, cell-free expressed; also called 2842-B01 HC3/LC2; 2842-B01-HC3/LC2 Y180/F404"}}, "key": {"[1]": {"biological_target": "T1, cynomolgus tissue factor on HEK293T-cynoTF cells (cynomolgus monkey, UniProt P13726 33-294 (human entry))", "T1 construct": "stably transfected HEK293T cells", "T1 chain": "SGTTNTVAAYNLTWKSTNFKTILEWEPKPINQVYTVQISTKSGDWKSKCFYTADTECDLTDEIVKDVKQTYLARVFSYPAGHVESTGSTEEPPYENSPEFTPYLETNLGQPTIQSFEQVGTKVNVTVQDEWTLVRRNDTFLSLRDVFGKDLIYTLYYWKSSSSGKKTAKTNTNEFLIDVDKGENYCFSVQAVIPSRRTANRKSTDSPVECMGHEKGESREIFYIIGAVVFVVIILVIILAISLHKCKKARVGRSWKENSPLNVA", "experiment": "flow cytometry on HEK293T-cynoTF cells, one-site fit of MFI", "from_the_text": "(§1) HEK293T, BxPC3 cells (TF positive) and NCI-H1703 (TF negative) cells were obtained from ATCC (American Type Culture Collection) and maintained in DMEM: F12 (1:1), high glucose (Corning) supplemented with 10% heat-inactivated fetal bovine serum (ThermoScientific), 1× Penicillin/Streptomycin (Corning) and 2 mmol glutamax (Thermo Fisher Scientific). To generate cells that stably expressing human tissue factor (HEK293T-humanTF) or cynomolgus tissue factor (HEK293T-cynoTF), HEK293T cells were transfected with plasmid vectors that contain the corresponding protein sequence and stable clones were selected with puromycin.\n(§2) For a fluorescence-activated cell sorting (FACS) cell-binding assay, cells were collected by Accutase and counted by the Vi-CELL Cell Viability Analyzersharvested and, then re-suspended in FACS buffer (DPBS buffer supplemented with 1% bovine serum albumin). A total of 200,000 cells in 100 μL were incubated on ice with 100 μL of anti-TF antibodies in each well of a 96-well plate. Cells were washed twice with ice-cold FACS buffer and then incubated on ice for 60 mins with 5 μg/mL Alexa 647-labeled donkey anti-human Fc antibody (Jackson ImmunoResearch). Unstained cells and cells stained with secondary antibody alone were used as controls. Cells were washed twice with FACS buffer and analyzed using a BD FACS Canto system. Geometric mean fluorescence intensities (MFI) were fitted using non-linear regression analysis with one site specific binding equation on GraphPad Prism (GraphPad Software; La Jolla, CA)."}, "[2]": {"biological_target": "T2, human tissue factor on cells (human, UniProt P13726 33-295)", "T2 construct": "cell-surface TF, transfected (HEK293T-humanTF) or endogenous (tumour lines, keratinocytes); the cell line is named under assay; also called HEK293T-humanTF; TF on BxPC3, primary human keratinocytes, NCI-H292, HCC1954, NCI-H1975", "experiment": "flow cytometry on HEK293T-humanTF cells, one-site fit of MFI", "from_the_text": "as §1, §2"}, "[3]": {"biological_target": "T2, human tissue factor on cells", "experiment": "flow cytometry on primary human keratinocytes, one-site fit of MFI", "description": "To evaluate antibody binding activity of the anti-TF antibodies on the adult primary keratinocytes, a total of 100,000 keratinocytes per well were incubated on ice with serial dilutions of anti-TF antibodies in FACS buffer (PBS buffer supplemented with 1% bovine serum albumin, 0.05% sodium azide) for 60 minutes. Cells were washed twice with ice-cold FACS buffer and then incubated with 5 microgram/mL Alexa 647 labeled donkey anti-human Fc antibody (Jackson ImmunoResearch, West Grove, PA) on ice for another 60 minutes. Unstained cells and cells stained with secondary antibodies alone were used as controls. Samples were then washed twice using FACS buffer and analyzed using an Attune flow cytometer (Thermo Fisher). Geometric mean fluorescence intensities were fitted using non-linear regression analysis with one site specific binding equation on GraphPad Prism."}, "[4]": {"biological_target": "T3, human tissue factor (human TF, Lake Pharma) (human, UniProt P13726 33-251, limits assumed)", "T3 construct": "bought recombinant antigen; also called CD142", "T3 sequence (P13726 33-251 limits assumed)": "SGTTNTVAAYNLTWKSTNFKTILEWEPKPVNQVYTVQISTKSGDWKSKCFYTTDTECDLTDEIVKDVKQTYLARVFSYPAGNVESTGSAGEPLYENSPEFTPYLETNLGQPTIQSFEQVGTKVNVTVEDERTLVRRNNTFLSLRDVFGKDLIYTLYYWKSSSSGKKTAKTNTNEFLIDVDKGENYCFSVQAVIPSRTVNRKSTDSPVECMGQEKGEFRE", "experiment": "Biacore SPR kinetics, antibody captured on anti-Fc, 1:1 Langmuir fit", "description": "(§3) Anti-Fc polyclonal antibodies were immobilized onto a CM4 chip (Cytiva #BR100534) using amine coupling chemistry (Human Antibody Capture Kit, Cytiva #BR100839). The immobilization steps were carried out at a flow rate of 25 μL/min in 1×HBS-EP+buffer (Cytiva #BR100669). The sensor surfaces were activated for 7 min with a mixture of N-hydroxysuccinimide (NHS, 0.05 M) and 1-ethyl-3-(3-dimethylaminopropyl)-carbodiimide (EDC, 0.2 M). The anti-Fc polyclonal antibodies were injected over all 4 flow cells at a concentration of 25 μg/mL in 10 mM sodium acetate, pH 4.5, for 7 min. Ethanolamine (1 M, pH 8.5) was injected for 7 min to block any remaining activated groups.\n(§4) Off-rate and kinetic binding experiments were performed at 25° C. using 1×HBS-EP+buffer. Antibodies were injected over the anti-Fc surface at a concentration of 3 μg/mL for 12 seconds at a flow rate of 10 μL/min on flow cells 2, 3 and 4, followed by a buffer wash for 30 seconds at the same flow rate. Single point off-rate analysis was carried out using an antigen concentration of 100 nM. […] After capturing ligand (antibody) on the anti-Fc surface, the analyte (human TF, Lake Pharma; cynomolgus TF, Sino Bio #90885-C08H; mouse TF, R&D Systems #3178-PA) was bound for 180 seconds, followed by a 420 second dissociation phase at a flow rate of […]. Between each ligand capture and analyte binding cycle, regeneration was carried out using 2 injections of 10 mM glycine pH 2.0 for 30 seconds at 30 μL/min, followed by a 30 second buffer wash step.\n(§5) The data were fit with the Biacore T200 Evaluation software, using a 1:1 Langmuir binding model. KD (affinity, nM) was determined as a ratio of the kinetic rate constants calculated from the fits of the association and dissociation phases."}, "[5]": {"biological_target": "T4, cynomolgus tissue factor (cynomolgus TF, Sino Bio #90885-C08H) (cynomolgus monkey, UniProt P13726 33-251 (human entry))", "T4 construct": "bought recombinant antigen; also called cyno TF", "T4 chain": "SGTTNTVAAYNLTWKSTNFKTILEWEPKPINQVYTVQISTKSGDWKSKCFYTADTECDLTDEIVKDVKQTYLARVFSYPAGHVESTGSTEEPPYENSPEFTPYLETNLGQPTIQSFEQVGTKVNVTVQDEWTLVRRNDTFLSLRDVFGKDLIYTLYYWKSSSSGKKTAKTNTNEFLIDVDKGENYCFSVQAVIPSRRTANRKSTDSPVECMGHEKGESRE", "experiment": "Biacore SPR kinetics, antibody captured on anti-Fc, 1:1 Langmuir fit", "description": "as §3, §4, §5"}}}
{"binder": "B1", "values": [{"measurement": "Bmax (MFI)", "setting": "[1]", "value": 493000, "unit": "MFI"}, {"measurement": "Kd", "setting": "[1]", "value": 3.9, "unit": "nM"}, {"measurement": "Bmax (MFI)", "setting": "[2]", "value": 334000, "unit": "MFI"}, {"measurement": "Kd", "setting": "[2]", "value": 3.9, "unit": "nM"}, {"measurement": "Kd", "setting": "[3]", "value": 24, "unit": "nM"}, {"measurement": "Kd", "setting": "[4]", "value": 7.3, "unit": "nM"}, {"measurement": "koff", "setting": "[4]", "value": 0.000418, "unit": "s⁻¹"}, {"measurement": "kon", "setting": "[4]", "value": 57200, "unit": "M⁻¹ s⁻¹"}, {"measurement": "Kd", "setting": "[5]", "value": 15.6, "unit": "nM"}, {"measurement": "koff", "setting": "[5]", "value": 0.00113, "unit": "s⁻¹"}, {"measurement": "kon", "setting": "[5]", "value": 72400, "unit": "M⁻¹ s⁻¹"}]}
